B1: S. cerevisiae Abp1 (full length; SH3 domain 535-592 mutated) / Hua2 (parent complex)
chain 1: MALEPIDYTTHSREIDAEYLKIVRGSDPDTTWLIISPNAKKEYEPESTGSSFHDFLQLFDETKVQYGLARVSPPGSDVEKIIIIGWCPDSAPLKTRASFAANFAAVANNLFKGYHVQVTARDEDDLDENELLMKISNAAGARYSIQTSSKQQGKASTPPVKKSFTPSKSPAPVSKKEPVKTPSPAPAAKISSRVNDNNDDDDWNEPELKERDFDQAPLKPNQSSYKPIGKIDLQKVIAEEKAKEDPRLVQKPTAAGSKIDPSSDIANLKNESKLKRDSEFNSFLGTTKPPSMTESSLKNDDDKVIKGFRNEKSPAQLWAERKAKQNSGNAETKAEAPKPEVPEDEPEGEPDVKDLKSKFEGLAASEKEEEEMENKFAPPPKKSEPTIISPKPFSKPQEPVKAEEAEQPKTDYKKIGNPLPGMHIEADNEEEPEENDDDWDDDEDEAAQPPLPSRNVASGAPVQKEEPEQEEIAPSLPSRNSIPAPKQEEAPEQAPEEEIEEEAEEAAPQLPSRSSAAPPPPPRRATPEKKPKENPWATAEYDYDAAEDNELTFVENDKIINIEFVDDDWWLGELEKDGSKGLFPSNYVSLGN
chain 2: MQQTKFGKMYLDHDSVVEYSEDEIVEADRITLGYKKRLSMIENQMRHLLEDFSLDVQQIEPILADLQKYYDAFLQLLQKRNKSLQCKRSTHQPVPSPMNSQTSTNAKVNLSGKLMKFQLNSVQKFDEENILRILQNKIEFEHYFQIDKGKKQKVLLLAVYQCLNGPTRLHKVLNIEGIIHNNSIRTILGKQVSSSKWTVFLYDVKLVLLAHRQDVPNLETSKMIVRYGDLFPCALYFKDHTAY

Variants of: B1
Test: DHFR protein-fragment complementation in yeast (Abp1-DHFR F[1,2] x partner-DHFR F[3]), deep mutational scanning, second methotrexate selection vs reference; S. cerevisiae, DHFR-PCA selection in liquid with methotrexate at 30 C, two 72 h selections (the score uses the second); reference = the pre-selection culture

screen value | Variant
0.294 DMS score: mean over two replicates of log2(f_test/f_ref + 0.5)/ln 2, minus the synonymous-codon median (not a log2 … | chain 1 MALEPIDYTTHSREIDAEYLKIVRGSDPDTTWLIISPNAKKEYEPESTGSSFHDFLQLFDETKVQYGLARVSPPGSDVEKIIIIGWCPDSAPLKTRASFAANFAAVANNLFKGYHVQVTARDEDDLDENELLMKISNAAGARYSIQTSSKQQGKASTPPVKKSFTPSKSPAPVSKKEPVKTPSPAPAAKISSRVNDNNDDDDWNEPELKERDFDQAPLKPNQSSYKPIGKIDLQKVIAEEKAKEDPRLVQKPTAAGSKIDPSSDIANLKNESKLKRDSEFNSFLGTTKPPSMTESSLKNDDDKVIKGFRNEKSPAQLWAERKAKQNSGNAETKAEAPKPEVPEDEPEGEPDVKDLKSKFEGLAASEKEEEEMENKFAPPPKKSEPTIISPKPFSKPQEPVKAEEAEQPKTDYKKIGNPLPGMHIEADNEEEPEENDDDWDDDEDEAAQPPLPSRNVASGAPVQKEEPEQEEIAPSLPSRNSIPAPKQEEAPEQAPEEEIEEEAEEAAPQLPSRSSAAPPPPPRRATPEKKPKENPWATAEYDYDAAEDNELTFVENDKIINIEFVDDDWWLGELEKDGSQGLFPSNYVSLGN [chain 1 K580Q]
-2.77 DMS score: mean over two replicates of log2(f_test/f_ref + 0.5)/ln 2, minus the synonymous-codon median (not a log2 … | chain 1 MALEPIDYTTHSREIDAEYLKIVRGSDPDTTWLIISPNAKKEYEPESTGSSFHDFLQLFDETKVQYGLARVSPPGSDVEKIIIIGWCPDSAPLKTRASFAANFAAVANNLFKGYHVQVTARDEDDLDENELLMKISNAAGARYSIQTSSKQQGKASTPPVKKSFTPSKSPAPVSKKEPVKTPSPAPAAKISSRVNDNNDDDDWNEPELKERDFDQAPLKPNQSSYKPIGKIDLQKVIAEEKAKEDPRLVQKPTAAGSKIDPSSDIANLKNESKLKRDSEFNSFLGTTKPPSMTESSLKNDDDKVIKGFRNEKSPAQLWAERKAKQNSGNAETKAEAPKPEVPEDEPEGEPDVKDLKSKFEGLAASEKEEEEMENKFAPPPKKSEPTIISPKPFSKPQEPVKAEEAEQPKTDYKKIGNPLPGMHIEADNEEEPEENDDDWDDDEDEAAQPPLPSRNVASGAPVQKEEPEQEEIAPSLPSRNSIPAPKQEEAPEQAPEEEIEEEAEEAAPQLPSRSSAAPPPPPRRATPEKKPKENPWATAEKDYDAAEDNELTFVENDKIINIEFVDDDWWLGELEKDGSKGLFPSNYVSLGN [chain 1 Y541K]
-1.21 DMS score: mean over two replicates of log2(f_test/f_ref + 0.5)/ln 2, minus the synonymous-codon median (not a log2 … | chain 1 MALEPIDYTTHSREIDAEYLKIVRGSDPDTTWLIISPNAKKEYEPESTGSSFHDFLQLFDETKVQYGLARVSPPGSDVEKIIIIGWCPDSAPLKTRASFAANFAAVANNLFKGYHVQVTARDEDDLDENELLMKISNAAGARYSIQTSSKQQGKASTPPVKKSFTPSKSPAPVSKKEPVKTPSPAPAAKISSRVNDNNDDDDWNEPELKERDFDQAPLKPNQSSYKPIGKIDLQKVIAEEKAKEDPRLVQKPTAAGSKIDPSSDIANLKNESKLKRDSEFNSFLGTTKPPSMTESSLKNDDDKVIKGFRNEKSPAQLWAERKAKQNSGNAETKAEAPKPEVPEDEPEGEPDVKDLKSKFEGLAASEKEEEEMENKFAPPPKKSEPTIISPKPFSKPQEPVKAEEAEQPKTDYKKIGNPLPGMHIEADNEEEPEENDDDWDDDEDEAAQPPLPSRNVASGAPVQKEEPEQEEIAPSLPSRNSIPAPKQEEAPEQAPEEEIEEEAEEAAPQLPSRSSAAPPPPPRRATPEKKPKENPWATAECDYDAAEDNELTFVENDKIINIEFVDDDWWLGELEKDGSKGLFPSNYVSLGN [chain 1 Y541C]
0.254 DMS score: mean over two replicates of log2(f_test/f_ref + 0.5)/ln 2, minus the synonymous-codon median (not a log2 … | chain 1 MALEPIDYTTHSREIDAEYLKIVRGSDPDTTWLIISPNAKKEYEPESTGSSFHDFLQLFDETKVQYGLARVSPPGSDVEKIIIIGWCPDSAPLKTRASFAANFAAVANNLFKGYHVQVTARDEDDLDENELLMKISNAAGARYSIQTSSKQQGKASTPPVKKSFTPSKSPAPVSKKEPVKTPSPAPAAKISSRVNDNNDDDDWNEPELKERDFDQAPLKPNQSSYKPIGKIDLQKVIAEEKAKEDPRLVQKPTAAGSKIDPSSDIANLKNESKLKRDSEFNSFLGTTKPPSMTESSLKNDDDKVIKGFRNEKSPAQLWAERKAKQNSGNAETKAEAPKPEVPEDEPEGEPDVKDLKSKFEGLAASEKEEEEMENKFAPPPKKSEPTIISPKPFSKPQEPVKAEEAEQPKTDYKKIGNPLPGMHIEADNEEEPEENDDDWDDDEDEAAQPPLPSRNVASGAPVQKEEPEQEEIAPSLPSRNSIPAPKQEEAPEQAPEEEIEEEAEEAAPQLPSRSSAAPPPPPRRATPEKKPKENPWATAEYDYDAAEDNELTFVENDKIINIEFVDDDWWLGELEKDGSKGLFPSNYVTLGN [chain 1 S589T]
0.273 DMS score: mean over two replicates of log2(f_test/f_ref + 0.5)/ln 2, minus the synonymous-codon median (not a log2 … | chain 1 MALEPIDYTTHSREIDAEYLKIVRGSDPDTTWLIISPNAKKEYEPESTGSSFHDFLQLFDETKVQYGLARVSPPGSDVEKIIIIGWCPDSAPLKTRASFAANFAAVANNLFKGYHVQVTARDEDDLDENELLMKISNAAGARYSIQTSSKQQGKASTPPVKKSFTPSKSPAPVSKKEPVKTPSPAPAAKISSRVNDNNDDDDWNEPELKERDFDQAPLKPNQSSYKPIGKIDLQKVIAEEKAKEDPRLVQKPTAAGSKIDPSSDIANLKNESKLKRDSEFNSFLGTTKPPSMTESSLKNDDDKVIKGFRNEKSPAQLWAERKAKQNSGNAETKAEAPKPEVPEDEPEGEPDVKDLKSKFEGLAASEKEEEEMENKFAPPPKKSEPTIISPKPFSKPQEPVKAEEAEQPKTDYKKIGNPLPGMHIEADNEEEPEENDDDWDDDEDEAAQPPLPSRNVASGAPVQKEEPEQEEIAPSLPSRNSIPAPKQEEAPEQAPEEEIEEEAEEAAPQLPSRSSAAPPPPPRRATPEKKPKENPWATAEYDYDAAEDNELTFVENDKIINIEFVDDDWWLGELEKDGSKGLFPSNYVGLGN [chain 1 S589G]

— paper PMC7954794 (2021)
